Measured values reported in patent US20240026407A1, “MODIFICATION OF SAPONINS” (GLAXOSMITHKLINE BIOLOGICALS SA, priority 2020, published 2024).

What was measured:
[1] = Experiment 4-1: screening of glucosidases for deglycosylation with purified QS-18 (0.04 mg/ml) at pH 7.5 and room temperature; format: biochemical, Quillaja saponaria; details: pH 7.5, room temperature, 20 h, clarified E. coli lysate, QS-18 2150 to QS-21 1988 by LCMS/MS
Method: Nucleotide sequences were sub-cloned into pET24b+ for expression. 10 uL of E. coli cells (One Shot® BL21(DE3) chemically competent E. coli) were transferred to each well of a 96 well PCR plate (prechilled on ice). 10 uL autoclaved water was added to the DNA, resuspended by pipetting, and 1 uL of plasmid DNA (15-30 ng) was transferred to the competent cells. Immediately after addition, the resulting mixture was mixed by pipetting. Cells were heat shocked by placing the plate in a thermal cycler at 42° C. for 30 seconds then transferred directly to an ice bath for 2 min. 100 uL sterile Lysogeny Broth (LB) medium was added to each well containing transformed cells. The content of each plate was transferred into a 96-deep well plate pre-aliquoted with 400 uL LB and the plate was incubated at 37° C. with shaking and 85% humidity for 1 hour. After outgrowth, 500 uL of sterile LB containing 100 ug/mL kanamycin was added to the plates containing cells and plates incubated at 37° C. with shaking overnight (18 hours) with humidity control (85%).
1000 mLs of Overnight Express Media was supplemented with 1 mL kanamycin 50 mg/mL and 20 mL of 50% v/v glycerol added (50 ug/mL kanamycin final and 1% glycerol). 96-Well Assay Block 2 mL plates were aliquoted with 380 uL of media per well. Pre-inoculum (20 uL) from transformation plates was added. The plates were sealed appropriately and incubated at 37° C. at 300 with shaking for 2 h. After 2 h the temperature was lowered to 20° C. and incubation continued for 20 h.
The liquid cultures were centrifuged for 10 minutes at 4° C. The supernatant was discarded, plates blotted on an absorbent material to remove residue and the plates frozen at −80° C.
Lysis buffer was prepared according to the following protocol: • 1. Polymyxin B sulphate (0.5 mg/mL) was suspended in 100 mM potassium phosphate pH 7.5 • 2. The mixture was sonicated until polymyxin B sulphate had dissolved • 3. Lysozyme (1 mg/mL) and benzonase (0.1 uL/mL lysis buffer) were added
2 copies of each cell pellet plate were removed from −80 degC freezer and allowed to thaw. 200 uL of lysis buffer was added to each well of one copy of the cell pellet plates. Plates were shaken at room temperature for 10 mins. 190 uL of cell pellet/lysis buffer was transferred to a corresponding fresh cell pellet plate. These plates were incubated at room temperature with shaking for 2 hours. Lysate was clarified by centrifugation (10 min, 4 degC).
QS-18 was obtained by analogous methods to Example 3, collecting a QS-18 containing phenyl fraction following phenyl treatment (presence of m/z corresponding to key components was confirmed by MS and the phenyl fraction then used without further treatment). QS-18 solution was prepared by diluting aqueous QS-18 (ca 1 mg/mL) with 100 mM potassium phosphate pH 7.5 to 0.2 mg/ml. 40 uL clarified lysate was transferred into fresh 96 well PCR plates. 10 uL QS-18 solution added to each well of lysate to a final concentration of 0.04 mg/ml. Incubated at room temperature with shaking for 20 h. Quenched with 50 uL MeCN and shaken at room temperature for 10 mins. Samples were analysed by LC-MS/MS using a Waters Acquity H class coupled to a Waters Xevo Tandem Quadrupole (TQD) Mass Spectrometer.
Enzyme activity was calculated as: […]
Candidate enzymes with % conversion >0.72%, i.e. >3 S.D. above negative control, were considered to be positive hits and are listed below in Table 7. Sample results are shown in FIG. 10 for a QS-21 standard, FIG. 11 for negative control and FIG. 12 for treatment with the glucosidase of SEQ ID No. 262.

[2] = Experiment 4-2: screening of glucosidases for deglycosylation with purified QS-18 (1 mg/ml) at pH 6 and 30 deg C; format: biochemical, Quillaja saponaria; details: pH 6, 30 degC, 18 hrs, clarified lysate, LCMS/MS
Method: Lysates were prepared in an identical manner to Experiment 4-1 above, except the lysis buffer was prepared in 100 mM potassium phosphate buffer pH 6. QS-18 solution was prepared by dissolving QS-18 in 100 mM potassium phosphate buffer pH 6 (2 mg/mL).
12 uL clarified lysate was transferred into fresh 96 well PCR plates. 12 uL QS-18 solution was added (1 mg/ml final concentration), plates sealed and incubated overnight (30° C.) for 18 hrs. After quenching with 25 uL MeCN and shaking for 10 mins (RT), samples were analysed using the LC-MS/MS protocol described in Experiment 4-1 and enzyme activity determined in an analogous manner.

| Molecule | Expt 4-1 % conv [1] [%] | Expt 4-2 % conv [2] [%] |
| --- | --- | --- |
| 102 (protein, listed as Bacteroides fragilis) MKATTSLATSCRRLLLWGVLTLQCLFSTAQKRFTADVEQQAEKILSQMTLDEKLSYIGGINWMYTRPLERFGIPRLKMSDGPQGLGTHGPSTAYPCALMLAATWNEQLATEYGSALGKDCRARGVHVLLGPAVNIYRAPMCGRNFEYMGEDPYLTSRMATGYIKGVQGQGVMATIKHFIANNSDYDRDHISSDIDERTLNEIYFPSFRAAVQEAEVGAVMSSYNLLNGIYTTEHPWLLKDVLRQQWGFKGILMSDWGSTHHCIPAVKGGLDLEMPAGSKMQPEELKYYLRTGDITIETIDEKVRHILQTLLAFGFRETQQPDTHIPLKNPQCAQTALNVASEGLVLLKNTNQILPIRSGKVKTIAVVGKNAQGYVCGGGSGEVHPFQYVSVLDGIRKEAAERDIRVEYLDVYDYLPTIIFTDTERKQKGFRAQYFDNMNLEGTPKVEQTETKINYSWSGGTGLKEMPKEQFSVRWNGTICPQETDEYLFTLGGDDGYRLYIDGKLIADEWHEGAFRNSTYRCMLEAGKKYDLKIEYFQKGGGAAVNFIWKQKNASNNLFVEALNRNDLVVACIGFNSDTEGEGRDRTFELPEDEAQLLQNTLQSKRPVVGIVNAGGNVEMQSWEPSLKGLLWAWYGGQEAGTAIARTLFGELNPSGKLPITFEKRWEDNPTFHSYYDPDGDKHVEYAEGIFVGYRGYDKLKREVQYPFGYGLSYTRFKLSAPTVGTPKTDGSVTVTCKLTNTGRTAGAEVVQLYVSNKDTTVEHPEKELKGFRKVYLEPGETKSIEITVPAEAFSHYDTGSRRFVIDRGSHDILLGFSSRDIKAKMSVGISR | 0.7 | 0.4 |
| 274 (protein, listed as Modestobacter marinus) MAGDTTAPAELDRPWTNTSLSPQERARELVAAMTLEQKIAQLHGAMDTIDIYSMKADTAEGMEQLAAQIRVERHVAAIEELGIPRFRITNGPVGVGMGDGTPSPPATALPMTIGLAAGFDPALAREYGTVIGSETATLGQHVLEGPGVCLHRTPISGRNFEYFSEDPYLSGVMGVEVARAIQEHGVIAMAKHYVCNDQEYERFRADVEVDERTLRELYLLPFEMLVKDADLAAIMSAYNRVRGTYATEHRYLLHTVLREEWGWQGYVQSDFWSCRSAAPAVNAGLDHEMPDAKWLNEDNVKAALADTSLEIETVDRALVRRYTQMFRFGQFDRPYDPGEIDAEGHGAISRRIGEQIAVLLKNDGAVLPLEPGVQSVVVIGQATYVDEACLGGGGSSKVDPLYTVRPMDGLRDVLQTLGSSADLREVTVADDLSNLAEAQAAAATADVVVIMAGLVATEGADQPDAHMLNDQDRMIAEVGQVNVRTVVVLKDGNPVLMPWIDAVPAVLEAWNQGAEDGHVVADLLFGVVNPAGKLPTTYPRSWADTPFAGHPERYPGTDEGAGYPVLRYSEGRQMGYRWYQAQGITPLFPFGHGLSYTTFELSDLAVSPERTDGAAPLTVQLTVANTGDVAGAEVAQVYLELPEAAQQPPKRLVGFCKIWLEPGAAERISVTIDPAATNHPLSVWDDGAHDFVVLPGEYTVFVGSSSEDTPLSATVTID | 0.9 | 0.3 |
| 152 (protein, listed as Kocuria rosea) MSDLWHGEEHAPGESDTAMTDATRTSGRAARLTELVDRLSLAEKVHLLTGETAFTLPGNERIGLAALAFSDGPTGVRGLTFVGGDAVALFPSATLIAGAFDDGIAEEVGRMLAEEAQRQHIHVVLGPTINLHRTPLGGRLFEAYSEDPYLTGRTAAAYVRGMQERGTAACLKHLVANESETLRNFMDSRVPETALRELYLLPFEMAVQDAGAWSMMAAYNDVNGVAATEHDHVQNGIVKGEWAWDGLIMSDWFATKRTAASASGGLDLVMPGPGGPWGERLVTAVRAGEVAEETIDDHVLRLLHLAERVGGLTPPGRQSRPWAQDLPAVDSPQRKEQLRRIAVRGMTVVANDGVLPLAVEGDAGQDVALIGRHAIDTVDMGGGSAVVNPPYLSTIAEGLAALLGDRVRVADGPAVRTRPVPADPAFLTDPATGTPGMQVVLLGADGTELTRYHSDSPAISLDGHDDLGEVPATAVLTTILANDAGPVRLGAVGAGRWDLVAEGQELSAELRLEGQDPGEAMLRPPAFAETVELPAAATLTATVAPAPVDWREVLLGDPGLGLAEESHLLQMTTAGKTALVAAPAPRPDDDLLAAAEAAAVAAGTAVVVVGLTEEQETEAADKTTLVLPGRQDELVRRVATAAERTVVVVNAATPVLMPWLDQVDAVLVAGLPGQEGGHAVAAALTGALEPTGRLVTSWPAADGAAPAWDVVPDGDRALSYDDGTFIGHRGYHAGHAPAPLFWFGHGLGYGTWEYGTVRARAGEGGPVVDVELTNTSSRASRETVQVYLDPAEDDQPIRLIGYQGVDVPSGATAAVRVRCDDRLLRRWDDAAGTWAPLAGGGELVLARGLGDVRARVPLA | 1.1 | 0.5 |
| 178 (protein, Aspergillus niger) MSELYCPIPPRDQDIYRFRQQFGANLGSTFVLGPHDNTGESNELQLLKTSLASTGLEQTRQKWQSHWHSALTDDDLVWLKDVAQCRTLRLPLSFYSLGPLFCRGTAFEGDPSEVYHHCWSTVKHLIEKCWFHGIGILIDFQASASGINLCASAKDRTIARDCVAFLAQEITFHSMSAVVGLSVSSGCEPAPDMCECYDEILKIANAIDACLPVYIDDNQAQCNKRVFKGCESDIPQFKSDISIGKIQIPSQMMLPETEVREKINKAKAERSGFQEKVLSQVSESWGSNERQSFVHGWNLGYDDALRFFGAAVQGILAPRKGADKIYDIELWVQQRKRDIDPEQLGENSAAWEDGLRRGIQDFYNIIGI | 0.5 | 0.8 |
| 84 (protein, listed as Tenericutes bacterium) MVNEELKTLLHTLSLTTKLKLLTGANFWESEKVLGTDLPIIVMNDGPFGVRKPTVNVDSGMLMEVIPATAFPTTSALASSFDPELLEKMGKTLATECIDQGVDLLLGPGINIKRSPLCGRNFEYFSEDPYLTSEMASGLVRGLQSKGVGATLKHYAVNNQEKERYTTNAIVDKRALNEIYLRPFHNVIKNTEPFSVMCSYNQINGRHASRHYKLLTEKLRNEANFKGLVVSDWGAVVDHVDSINAGLNLEMPGGYQNTAELEKAVKDGEIKLETIDEMITPLLKFMMYKRDNPKPKVKCDYKKNLEVAQEIAEKSAVLLRNEDNLLPINKTAKVGLIGNFAIKPRYQGSGSSQINPHTLVSVHDAFIQNDVNFVYADGYAEHEVKPNKKKIAEAVKVAKNSDVVVLCVGLPESYEVEGYDRKTLDMPPSHNELIKEVAKVNENIVIVLSTGSPVTMPWINDVKSILLTHLAGSMTGPATYNLLFGVTNPSGKLSETYPLSLDKGLPGGEFLTSDQNVLYRESLYVGYRYYDTFREQVLFPFGHGLSYTQFNTSHHEIEEVKDGYNITMEVTNIGHIRGAEVIGIYTGKSRSLLYGPRKELRAFKKVYLDPGEKQKINIFLPTESLKAYCPVKQEWVLENVNYNVYVGINVQTTDEIFQILVDDANDLSYLKNYQKENEMYYRRADFNPSIKDFTTLFGGESLPLFFANRKRPFTLANNISDTTDYWWGRTIYKIMAKTSRKLAGDDVVLQEMAVETIKELPFRSLSALSSGEVSTNQRDAILLLVNGKPIRGIFKFLRKKK | 0.8 | 0.4 |
